What was measured:
[1] = molecular target: T1, recombinant human herpes virus entry mediator (HVEM) (human, UniProt Q92956 39-202); assay: sandwich ELISA: plate coated with recombinant human HVEM 1 ug/mL, fusion protein from 1 nM in serial dilution, detected with biotinylated recombinant human FAP and streptavidin conjugate, OD 450 nm
T1 construct: neither construct is described; also called human HVEM; recombinant human HVEM protein (R&D systems)
T1 sequence (looked up): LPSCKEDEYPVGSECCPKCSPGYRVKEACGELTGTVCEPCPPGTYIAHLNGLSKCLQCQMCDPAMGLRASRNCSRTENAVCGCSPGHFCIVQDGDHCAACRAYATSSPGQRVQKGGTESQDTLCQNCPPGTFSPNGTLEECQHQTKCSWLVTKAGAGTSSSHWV
Procedure: Considering that LIGHT of the fusion protein must bind to the herpes virus entry mediator (HVEM) for the action, it was confirmed that T3.01 binds to the recombinant human HVEM, as follows: [0370] (i) The recombinant human HVEM protein (R&D systems) was suspended at 1 μg/mL, dispensed in a 96-well immune plate, and treated for 24 hours. [0371] (ii) The wells were washed with a wash solution, and then blocking was performed for 1 hour with 1% BSA (bovine serum albumin, Sigma) solution. [0372] (iii) The wells were washed with a wash solution, and then T3.01, T3.14, T3.16, T3.17, T3.18 and T3.10, or T3.05, T3.06, T3.04, T3.14 and T3.10 were suspended at 1 nM and diluted by serial dilution. The wells were treated with the diluted T3.01, T3.14, T3.16, T3.17, T3.18 and T3.10, or T3.05, T3.06, T3.04, T3.14 and T3.10 for 2 hours. [0373] (iv) The wells were washed with a wash solution, and then treated with the human recombinant FAP-biotin diluted at 0.5 μg/mL for 2 hours. [0374] (v) The wells were washed with a wash solution, and then treated with streptavidin-RP for 20 minutes. [0375] (vi) The wells were washed with a wash solution, and then treated with a substrate solution for 20 minutes. [0376] (vii) The wells were treated with a stop solution, and the absorbance was measured at 450 nm.

[2] = molecular target: T2, human FAP on HEK293-hFAP cells (human, UniProt Q12884 1-760); assay: flow cytometry on HEK293-hFAP cells, 1 ug protein per 1x10^5 cells, anti-human IgG detection (axis TMEkine-PE)
T2 construct: whole, on cells; also called human FAP-expressing cell line
T2 sequence (looked up): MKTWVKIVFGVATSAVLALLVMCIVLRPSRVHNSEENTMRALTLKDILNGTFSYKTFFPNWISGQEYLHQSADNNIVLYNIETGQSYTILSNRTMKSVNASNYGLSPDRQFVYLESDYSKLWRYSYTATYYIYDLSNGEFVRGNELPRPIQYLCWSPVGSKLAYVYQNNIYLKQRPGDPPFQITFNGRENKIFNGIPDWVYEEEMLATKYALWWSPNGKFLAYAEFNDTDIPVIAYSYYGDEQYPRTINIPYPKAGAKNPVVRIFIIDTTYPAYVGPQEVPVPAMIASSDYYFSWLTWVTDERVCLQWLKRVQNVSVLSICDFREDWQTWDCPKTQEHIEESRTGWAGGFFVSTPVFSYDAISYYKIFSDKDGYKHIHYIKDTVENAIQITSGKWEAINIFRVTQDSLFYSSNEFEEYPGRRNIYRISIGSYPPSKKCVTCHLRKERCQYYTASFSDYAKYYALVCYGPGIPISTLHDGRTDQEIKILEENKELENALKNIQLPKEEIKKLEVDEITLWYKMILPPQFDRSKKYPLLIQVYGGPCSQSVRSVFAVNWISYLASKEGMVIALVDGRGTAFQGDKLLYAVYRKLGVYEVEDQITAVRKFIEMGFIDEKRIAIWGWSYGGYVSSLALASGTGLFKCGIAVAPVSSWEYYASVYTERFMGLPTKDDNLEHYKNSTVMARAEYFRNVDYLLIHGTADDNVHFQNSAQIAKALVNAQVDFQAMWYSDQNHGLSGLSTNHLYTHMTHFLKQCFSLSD
Procedure: (§1) Specifically, the cell line was prepared by suspending in a FACS buffer solution at 1×10⁵ cells/100 μL, and treated with 1 μg each of T3.10, T3.01, T3.05, T3.06, T3.14, and T3.18. The cells were washed twice with a FACS buffer solution. The cells were stained with an anti-human IgG antibody (Biolegend). The negative control sample was stained only with an anti-human IgG antibody (Biolegend). The expression ratio of the stained cells was measured using BD LSR and analyzed using FlowJo software.

[3] = molecular target: T2, human FAP on HEK293-hFAP cells; assay: flow cytometry on HEK293-hFAP cells, 1 µg protein, anti-human IgG detection
Procedure: as §1

B1: T3.05 (anti-hu FAP/hu scLIGHT3(226-231), hu IgG1 DANG) (bispecific antibody)
heavy: QVQLVQSGAEVKKPGASVKVSCKTSRYTFTEYTIHWVRQAPGQRLEWIGGINPNNGIPNYNQKFKGRVTITVDTSASTAYMELSSLRSEDTAVYYCARRRIAYGYDEGHAMDYWGQGTLVTVSSASTKGPSVFPLAPSSKSTSGGTAALGCLVKDYFPEPVTVSWNSGALTSGVHTFPAVLQSSGLYSLSSVVTVPSSSLGTQTYICNVNHKPSNTKVDKKVEPKSCDKTHTCPPCPAPELLGGPSVFLFPPKPKDTLMISRTPEVTCVVVAVSHEDPEVKFNWYVDGVEVHNAKTKPREEQYGSTYRVVSVLTVLHQDWLNGKEYKCKVSNKALPAPIEKTISKAKGQPREPQVYTLPPSRDELTKNQVSLWCLVKGFYPSDIAVEWESNGQPENNYKTTPPVLDSDGSFFLYSKLTVDKSRWQQGNVFSCSVMHEALHNHYTQKSLSLSPGK
light: not shown
chain: not shown
notes: Knob-into-hole
binding result [1]: no binding (tested: 1000 pM) | percent of cells in the positive gate [2]: 99.8% | percent of cells bound [3]: ≥ 99%

From patent US20250368754A1 (KANAPH THERAPEUTICS, published 2025)
